Assay [1] deals with Sb44, synthetic nanobody (sybody) against TGP. The assay is described as follows: SEC; TGP (or Cys mutant) and sybody (or mutant) mixed 1:3 on ice for 20 min; Superdex 200 Increase 10/300 GL; 150 mM NaCl, 20 mM HEPES pH 7.5; absorbance at 493 nm and 280 nm. On the technique in general: Size exclusion chromatography separates by hydrodynamic size, large species first.
Assay [2] addresses Sb44 V100C. The assay is described as follows: SDS-PAGE (non-reducing); individually purified proteins; Laemmli sample buffer without DTT; 12% gel; Coomassie and in-gel fluorescence; shows disulfide-linked species.
Assay [3] deals with Sb44 V100C. The assay is described as follows: SEC; TGP (or Cys mutant) and sybody (or mutant) mixed 1:3 on ice for 20 min; Superdex 200 Increase 10/300 GL; 150 mM NaCl, 20 mM HEPES pH 7.5; absorbance at 493 nm and 280 nm.

Our source for the stoichiometry N values is paper PMC12368520.

B1: Sb44, synthetic nanobody (sybody) against TGP (VHH)
VHH: QVQLVESGGGLVQAGGSLRLSCAASGFPVGRASMWWYRQAPGKEREWVAAISSYGWVTAYADSVKGRFTISRDNAKNTVYLQMNSLKPEDTAVYYCEVSVGTGYRGQGTQVTVSA
In general, stoichiometry N refers to a count of units in the complex or per binding partner. Consider B1, for which, in assay [1], the stoichiometry N turned out to be 2.

B2: Sb44 V100C (VHH)
VHH: QVQLVESGGGLVQAGGSLRLSCAASGFPVGRASMWWYRQAPGKEREWVAAISSYGWVTAYADSVKGRFTISRDNAKNTVYLQMNSLKPEDTAVYYCEVSCGTGYRGQGTQVTVSA
B2: the stoichiometry N with Sb44 V100C [2] and with Sb44 V100C [3] was 2 in each case.
